The record followed here is patent publication US20090311248A1.

In this assay the target is E1s (HCV E1 envelope protein, aa 192-326 of the HCV polyprotein) (Hepatitis C virus (HCV)). Kind of assay: coating ELISA, E1s at 0.5 ug/ml, hybridoma supernatant. (In general: ELISA stands for enzyme-linked immunosorbent assay.)

Take 4G2 (antibody): the O.D. value (450-595 nm) was greater than 2 O.D.
